Reference: patent US20210070872A1 (AGENUS, published 2021)

T1: biotinylated GITR (human, UniProt Q9Y5U5 26-161, limits assumed, biotinylated (sites not given))
T1 construct: also called GITR-bio; Biotin-GITR
T1 sequence: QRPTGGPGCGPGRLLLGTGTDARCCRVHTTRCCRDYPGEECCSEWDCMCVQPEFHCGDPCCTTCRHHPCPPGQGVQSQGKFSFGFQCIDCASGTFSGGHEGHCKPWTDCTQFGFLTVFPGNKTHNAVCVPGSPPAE

B1: germline variant antibody 10 (H1916A11 / K1916A11) (antibody, V domains shown)
VH: QVQLVQSGAEVKKPGASVKVSCKASGYTFTEYAMYWVRQAPGQGLEWMGLIRTYSGGVSYNQKFRGRVTMTVDKSISTAYMELSRLRSDDTAVYYCAKSGTVRGFAYWGQGTLVTVSS
VL: DIVMTQSPDSLAVSLGERATINCKSSQSLLNSSNQKNYLSWYQQKPGQPPKLLIYWASTRESGVPDRFSGSGSGTDFTLTISSVQAEDVAVYHCQNDYSYPYTFGQGTKLEIK
notes: IGHG1/IGKC expression vectors; measured from CHO culture supernatant; also called Antibody ID 10
B2: germline variant antibody 4 (H1916A05 / K1916A05) (antibody, V domains shown)
VH: QVQLVQSGAEVKKPGASVKVSCKASGYTFTEYAMYWVRQAPGQSLEWMGLIRTFSGDVSYNQKFQDRVTMTVDKSISTAYMELSRLRSDDTAVYYCAKSGTVRGFAYWGQGTLVTVSS
VL: DIVMTQSPDSLAVSLGERATINCKSSQSLLNSSNQKNYLSWYHQKPGQPPKLLIYWASTRESGVPDRFTGSGSGTDFTLTISSVQAEDVAVYYCQNDYSYPYTFGQGTKLEIK
notes: IGHG1/IGKC expression vectors; measured from CHO culture supernatant; also called Antibody ID 4
B3: germline variant antibody 2 (H1916A03 / K1916A03) (antibody, V domains shown)
VH: QVQLVQSGAEVKKPGASVKVSCKASGYTFTEYAMHWVRQAPGQGMEWIGLIRTYSGGVSYNQKFRGRATMTVDKSISTAYMELSRLRSDDTAVYYCAKSGTVRGFAYWGQGTLVTVSS
VL: DIVMTQSPDSLAVSLGERATINCKSSQSLLNSGNQKNYLSWYHQKPGQPPKLLIYWASTRESGVPDRFSGSGSGTDFTLTISSVQAEDVAVYYCQNEYSFPYTFGQGTKLEIK
notes: IGHG1/IGKC expression vectors; measured from CHO culture supernatant; also called Antibody ID 2
B4: germline variant antibody 25 (H1916C07 / K1916C07) (antibody, V domains shown)
VH: QVQLVQSGAEVKKPGASVKVSCKASGYTFTEYAMYWVRQAPGQGLEWMGLIRTFSGGVSYNQKFRGRATMTVDTSISTAYMELSRLRSDDTAVYYCAKSGTVRGFAYWGQGTLVTVSS
VL: DIVMTQSPDSLAVSLGERATINCKSSQSLLNSGNQKNYLTWYQQKPGQPPKMLIYWASTRESGVPDRFTGSGSGTDFTLTISSVQAEDVAVYYCQNDYSFPYTFGQGTKLEIK
notes: IGHG1/IGKC expression vectors; measured from CHO culture supernatant; also called Antibody ID 25
B5: germline variant antibody 15 (H1916B05 / K1916B05) (antibody, V domains shown)
VH: QVQLVQSGAEVKKPGASVKVSCKGSGYTFTDYAMYWVRQAPGQGLEWIGVIRTFSGDVSYNQKFRERATMTVDKSISTAYMELSRLRSDDTAVYYCAKSGTVRGFAYWGQGTLVTVSS
VL: DIVMTQSPDSLAVSLGERATINCKSSQSLLNSGNQKNYLSWYQQKPGQPPKLLIYWASTRESGVPDRFTGSGSGTDFTLTISSLQAEDVAVYHCQNDYSYPYTFGQGTKLEIK
notes: IGHG1/IGKC expression vectors; measured from CHO culture supernatant; also called Antibody ID 15
B6: germline variant antibody 6 (H1916A07 / K1916A07) (antibody, V domains shown)
VH: QVQLVQSGAEVKKPGASVKVSCKGSGYTFTEYAMYWVRQAPGQGLEWMGLIRTFSGGVSYNQKFKGRATMTVDTSISTAYMELSRLRSDDTAVYYCAKSGTVRGFAYWGQGTLVTVSS
VL: DIVMTQSPDSLAVSLGERATINCKSSQSLLNSGNQKNYLSWYQQKPGQPPKMLIYWASTRESGVPDRFTGSGSGTDFTLTISSLQAEDVAVYHCQNDYSYPYTFGQGTKLEIK
notes: IGHG1/IGKC expression vectors; measured from CHO culture supernatant; also called Antibody ID 6
B7: germline variant antibody 16 (H1916B06 / K1916B06) (antibody, V domains shown)
VH: QVQLVQSGTEVKKPGASVKVSCKASGYTFTGYAMYWVRQAPGQGLEWIGLIRTFSGGVTYNQKFRERVTMTVDKSISTAYMELSRLRSDDTAVYYCAKSGTVRGFAYWGQGTLVTVSS
VL: DIVMTQSPDSLAVSLGERATINCKSSQSLLNSGNQKNYLTWYHQKPGQPPKLLIYWASTRESGVPDRFTGSGSGTDFTLTISSVQAEDVAVYHCQNDYSYPYTFGQGTKLEIK
notes: IGHG1/IGKC expression vectors; measured from CHO culture supernatant; also called Antibody ID 16
B8: germline variant antibody 33 (H1916D03 / K1916D03) (antibody, V domains shown)
VH: QVQLVQSGAEVKKPGASVKVSCKASGYTFTGYAMYWVRQAPGQGMEWIGLIRTYSGGVTYNQKFQGRVTMTVDTSISTAYMELSRLRSDDTAVYYCAKSGTVRGFAYWGQGTLVTVSS
VL: DIVMTQSPDSLAVSLGERATINCKSSQSLLNSGNQKNYLSWYHQKPGQPPKLLIYWASTRESGVPDRFSGSGSGTDFTLTISSVQAEDVAVYHCQNEYSYPYTFGQGTKLEIK
notes: IGHG1/IGKC expression vectors; measured from CHO culture supernatant; also called Antibody ID 33
B9: germline variant antibody 34 (H1916D04 / K1916D04) (antibody, V domains shown)
VH: QVQLVQSGAEVKKPGASVKVSCKASGYTFTDYAMYWVRQAPGQGMEWIGVIRTFSGGVTYNQKFRGRVTMTVDTSISTAYMELSRLRSDDTAVYYCAKSGTVRGFAYWGQGTLVTVSS
VL: DIVMTQSTDSLAVSLGERATINCKSSQSLLNSSNQKNYLTWYQQKPGQPPKLLIYWASTRESGVPDRFTGSGSGTDFTLTISSLQAEDVAVYHCQNDYSYPYTFGQGTKLEIK
notes: IGHG1/IGKC expression vectors; measured from CHO culture supernatant; also called Antibody ID 34
B10: germline variant antibody 36 (H1916D06 / K1916D06) (antibody, V domains shown)
VH: QVQLVQSGAEVKKPGASVKVSCKGSGYTFTDYAMYWVRQAPGQGMEWIGVIRTFSGGVSYNQKFRDRVTMTVDKSISTAYMELSRLRSDDTAVYYCAKSGTVRGFAYWGQGTLVTVSS
VL: DIVMTQSPDSLAVSLGERATINCKSSQSLLNSSNQKNYLTWYHQKPGQPPKMLIYWASTRESGVPDRFSGSGSGTDFTLTISSVQEEDVAVYHCQNDYSFPYTFGQGTKLEIK
notes: IGHG1/IGKC expression vectors; measured from CHO culture supernatant; also called Antibody ID 36
B11: germline variant antibody 29 (H1916C11 / K1916C11) (antibody, V domains shown)
VH: QVQLVQSGAEVKKPGASVKVSCKGSGYTFTDYAMYWVRQAPGQGLEWIGVIRTFSGGVTYNQKFKGRATMTVDTSISTAYMELSRLRSDDTAVYYCAKSGTVRGFAYWGQGTLVTVSS
VL: DIVMTQSPDSLAVSLGERATINCKSSQSLLNSSNQKNYLSWYQQKPGQPPKLLIYWASTRESGVPDRFSGSGSGTDFTLTISSLQAEDVAVYHCQNDYSYPYTFGQGTKLEIK
notes: IGHG1/IGKC expression vectors; measured from CHO culture supernatant; also called Antibody ID 29
B12: germline variant antibody 31 (H1916D01 / K1916D01) (antibody, V domains shown)
VH: QVQLVQSGTEVKKPGASVKVSCKGSGYTFTEYAMYWVRQAPGQGLEWMGLIRTFSGGLTYNQKFKDRVTMTVDKSISTAYMELSRLRSDDTAVYYCAKSGTVRGFAYWGQGIPVTVSS
VL: DIVMTQSPDSLAVSLGERATINCKSSQSLLNSSNQKNYLTWYQQKPGQPPKLLIYWASTRESGVPDRFTGSGSGTDFTLTISSLQAEDVAVYHCQNDYSYPYTFGQGTKLEIK
notes: IGHG1/IGKC expression vectors; measured from CHO culture supernatant; also called Antibody ID 31
B13: germline variant antibody 38 (H1916D08 / K1916D08) (antibody, V domains shown)
VH: QVQLVQSGTEVKKPGASVKVSCKGSGYTFTGYAMYWVRQAPGQGLEWIGVIKTYSGGVTYNQKFRGRVTMTVDKSISTAYMELSRLRSDDTAVYYCAKSGTVRGFAYWGQGTLVTVSS
VL: DIVMTQSPDSLAVSLGERATINCKSSQSLLNSGNQKNYLTWYQQKPGQPPKLLIYWASTRESGVPDRFSGSGSGTDFTLTISSLQAEDVAVYYCQNDYSYPYTFGQGTKLEIK
notes: IGHG1/IGKC expression vectors; measured from CHO culture supernatant; also called Antibody ID 38
B14: germline variant antibody 9 (H1916A10 / K1916A10) (antibody, V domains shown)
VH: QVQLVQSGAEVKKPGASVKVSCKASGYTFTGYAMYWVRQAPGQGLEWMGLIRTYSGEVSYNQKFRGRATMTVDKSISTAYMELSRLRSDDTAVYYCAKSGTVRGFAYWGQGTLVTVSS
VL: DIVMTQSPDSLAVSLGERATINCKSSQSLLNSGNQKNYLTWYQQKPGQPPKMLIYWASTRESGVPDRFSGSGSGTDFTLTISSLQAEDVAVYHCQNDYSFPYTFGQGTKLEIK
notes: IGHG1/IGKC expression vectors; measured from CHO culture supernatant; also called Antibody ID 9
B15: germline variant antibody 11 (H1916Al2 / K1916A12) (antibody, V domains shown)
VH: QVQLVQSGAEVKKPGASVKVSCKGSGYTFTDYAMHWVRQAPGQGLEWMGLIRTYSGGVSYNQKFRGRVTMTVDTSISTAYMELSRLRSDDTAVYYCAKSGTVRGFAYWGQGTLVTVSS
VL: DIVMTQSPDSLAVSLGERATINCKSSQSLLNSSNQKNYLSWYQQKPGQPPKLLIYWASTRESGVPDRFSGSGSGTDFTLTISSVQAEDVAVYHCQNDYSFPYTFGQGTKLEIK
notes: IGHG1/IGKC expression vectors; measured from CHO culture supernatant; also called Antibody ID 11
B16: germline variant antibody 1 (H1916A01 / K1916A01) (antibody, V domains shown)
VH: QVQLVQSGTEVKKPGASVKVSCKGSGYTFTEYAMYWVRQAPGQGLEWIGVIRTYSGGVTYNQKFQGRATMTVDTSISTAYMELSRLRSDDTAVYYCAKSGTVRGFAYWGQGTLVTVSS
VL: DIVMTQSPDSLAVSLGERATINCKSSQSLLNSGNQKNYLTWYHQKPGQPPKMLIYWASTRESGVPDRFSGSGSGTDFTLTISSVQAEDVAVYHCQNDYSYPYTFGQGTKLEIK
notes: IGHG1/IGKC expression vectors; measured from CHO culture supernatant; also called Antibody ID 1

Molecular target: T1, biotinylated GITR
Assay: BLI (Octet), biotin-GITR on streptavidin tips, antibody supernatant
Description: Several hundred germlined antibodies were selected based on binding kinetics as determined by Octet measurements (Octet RED 96 system; ForteBio™ Inc., Menlo Park, Calif.). The experimental procedure was configured according to the instruction manual of the instrument. Biotin-GITR was bound to Streptavidin biosensor (SA) and PBS (pH 7.4) was used as a blank control. Briefly, the interaction analyses were conducted at 30° C. in running buffer (PBS, 0.05% Tween, pH7.4). Sensor tips were pre-wet for 10 minutes in running buffer immediately prior to use, and the micro plates used in the Octet were filled with 200 μl of sample or buffer per well and agitated at 800 rpm. For the experiments, commercially available precoated SA tips were used. Biotinylated GITR was loaded onto the ForteBio SA fibers in PBS pH7.4 for 10 minutes and washed for 4 minutes. For the association phase, the ligand-coated SA tips were immersed for 5 minutes in cell culture supernatant that was diluted 1:10 in running buffer prior to the measurement. Dissociation of the antibody-antigen complex was measured in wells containing the Octet buffer alone for 5 minutes. After each run, the tips were regenerated with Glycine (10 mM, pH 2.0). Affinity, Kₒₙ and Koff were determined with Octet evaluation software v6.3 using a 1:1 binding model with local full fitting.

Binder | Kd [nM] | koff [s⁻¹] | kon [M⁻¹ s⁻¹]
B1 | 0.911 | 0.00056 | 615000
B2 | 1.43 | 0.000501 | 351000
B3 | 4.23 | 0.00234 | 553000
B4 | 1.69 | 0.000632 | 374000
B5 | 2.22 | 0.000616 | 278000
B6 | 2.7 | 0.000579 | 214000
B7 | 1.47 | 0.000523 | 356000
B8 | 0.0901 | 0.00101 | 1.12e+07
B9 | 0.458 | 0.000255 | 557000
B10 | 0.44 | 0.00028 | 638000
B11 | 1.06 | 0.000313 | 295000
B12 | 0.418 | 0.000211 | 505000
B13 | 0.0875 | 0.00075 | 8.57e+06
B14 | 2.68 | 0.000784 | 293000
B15 | 2.1 | 0.000847 | 403000
B16 | 0.744 | 0.000348 | 468000
